Tests used:
[1] = target: triple-helical peptide II-27-B (II-27-derived sequence with GVOGEA within (GPP)5 hosts) (O in the letters is hydroxyproline); test: real-time label-free cell adhesion
[2] = target: triple-helical peptide II-27-C (II-27-derived sequence with GVOGEA within (GPP)5 hosts) (O in the letters is hydroxyproline); test: real-time label-free cell adhesion

adhesion relative to that on II-27 [1]: ~40% | adhesion relative to that on II-27 [2]: ~40%
B1: integrin α1β1 on rat pheochromocytoma PC12 cells (receptor, rat (endogenous in PC12))
chain 1: FNVDVKNSMSFSGPVEDMFGYTVQQYENEEGKWVLIGSPLVGQPKARTGDVYKCPVGRERAMPCVKLDLPVNTSIPNVTEIKENMTFGSTLVTNPNGGFLACGPLYAYRCGHLHYTTGICSDVSPTFQVVNSFAPVQECSTQLDIVIVLDGSNSIYPWESVIAFLNDLLKRMDIGPKQTQVGIVQYGENVTHEFNLNKYSSTEEVLVAANKIGRQGGLQTMTALGIDTARKEAFTEARGARRGVKKVMVIVTDGESHDNYRLKQVIQDCEDENIQRFSIAILGHYNRGNLSTEKFVEEIKSIASEPTEKHFFNVSDELALVTIVKALGERIFALEATADQSAASFEMEMSQTGFSAHYSQDWVMLGAVGAYDWNGTVVMQKANQMVIPHNTTFQTEPAKMNEPLASYLGYTVNSATIPGDVLYIAGQPRYNHTGQVVIYKMEDGNINILQTLGGEQIGSYFGSVLTTIDIDKDSYTDLLLVGAPMYMGTEKEEQGKVYVYAVNQTRFEYQMSLEPIRQTCCSSLKDNSCTKENKNEPCGARFGTAIAAVKDLNVDGFNDVVIGAPLEDDHAGAVYIYHGSGKTIREAYAQRIPSGGDGKTLKFFGQSIHGEMDLNGDGLTDVTIGGLGGAALFWARDVAVVKVTMNFEPNKVNIQKKNCRVEGKETVCINATMCFHVKLKSKEDSIYEADLQYRVTLDSLRQISRSFFSGTQERKIQRNITVRESECIRHSFYMLDKHDFQDSVRVTLDFNLTDPENGPVLDDALPNSVHEHIPFAKDCGNKERCISDLTLNVSTTEKSLLIVKSQHDKFNVSLTVKNKGDSAYNTRTVVQHSPNLIFSGIEEIQKDSCESNQNITCRVGYPFLRAGETVTFKIIFQFNTSHLSENAIIHLSATSDSEEPLESLNDNEVNISIPVKYEVGLQFYSSASEHHISVAANETIPEFINSTEDIGNEINVFYTIRKRGHFPMPELQLSISFPNLTADGYPVLYPIGWSSSDNVNCRPRSLEDPFGINSGKKMTISKSEVLKRGTIQDCSSTCGVATITCSLLPSDLSQVNVSLLLWKPTFIRAHFSSLNLTLRGELKSENSSLTLSSSNRKRELAIQISKDGLPGRVPLWVILLSAFAGLLLLMLLILALWKIGFFKRPLKKKMEK
chain 2: QTDKNRCLKANAKSCGECIQAGPNCGWCTNTTFLQEGMPTSARCDDLEALKKKGCHPSDIENPRGSQTIKKNKNVTNRSKGMAEKLRPEDITQIQPQQLLLKLRSGEPQKFTLKFKRAEDYPIDLYYLMDLSYSMKDDLENVKSLGTDLMNEMRRITSDFRIGFGSFVEKTVMPYISTTPAKLRNPCTSEQNCTSPFSYKNVLSLTDRGEFFNELVGQQRISGNLDSPEGGFDAIMQVAVCGSLIGWRNVTRLLVFSTDAGFHFAGDGKLGGIVLPNDGQCHLENNVYTMSHYYDYPSIAHLVQKLSENNIQTIFAVTEEFQPVYKELKNLIPKSAVGTLSGNSSNVIQLIIDAYNSLSSEVILENSKLPDGVTINYKSYCKNGVNGTGENGRKCSNISIGDEVQFEISITANKCPNKESENQLKLNPLGFTEEVEVVLQFICKCNCQSHGIPASPKCHEGNGTFECGACRCNEGRVGRHCECSTDEVNSEDMDAYCRKENSSEICSNNGECVCGQCVCRKRENTNEIYSGKFCECDNFNCDRSNGLICGGNGVCRCRVCECYPNYTGSACDCSLDTVPCVATNGQICNGRGICECGACKCTDPKFQGPTCETCQTCLGVCAEHKECVQCRAFNKGEKKDTCAQECSHFNLTKVESREKLPQPVQVDPVTHCKEKDIDDCWFYFTYSVNSKGEAHVHVVETPDCPTGPDIIPIVAGVVAGIVLIGLALLLIWKLLMIIHDRREFAKFEKEKMNAKWDTGENPIYKSAVTTVVNPKYEGK
